Assay [1] concerns the target T1, Full-length human Leucine-rich repeat kinase 2 (LRRK2), N-terminal Strep/Flag (SF) tagged (human, UniProt Q5S007 1-2527). Nature of the assay: cell-based or functional assay.
Assay [2] concerns the target T2, LRRK2 RocCOR domain construct (human, UniProt Q5S007 1334-1840).
T2 construct: A second construct (residues 1293-1840, N-terminal His6-MBP) was used in certain screening experiments; not shown: N-terminal Twin-Strep-tag; C-terminal His10-tag
T2 sequence: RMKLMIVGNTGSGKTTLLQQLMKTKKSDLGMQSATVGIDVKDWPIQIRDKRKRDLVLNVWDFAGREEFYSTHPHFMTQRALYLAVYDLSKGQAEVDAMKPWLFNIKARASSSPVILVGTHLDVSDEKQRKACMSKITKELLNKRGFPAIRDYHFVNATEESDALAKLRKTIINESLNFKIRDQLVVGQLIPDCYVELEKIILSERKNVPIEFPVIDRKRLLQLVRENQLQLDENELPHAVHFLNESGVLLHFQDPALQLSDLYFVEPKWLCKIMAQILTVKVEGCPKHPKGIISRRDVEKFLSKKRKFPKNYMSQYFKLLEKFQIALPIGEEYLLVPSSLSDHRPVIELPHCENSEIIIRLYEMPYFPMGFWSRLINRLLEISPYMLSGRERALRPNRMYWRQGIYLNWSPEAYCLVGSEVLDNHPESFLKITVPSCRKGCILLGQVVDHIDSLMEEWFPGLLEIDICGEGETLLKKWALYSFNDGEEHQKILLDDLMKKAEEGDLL
Nature of the assay: ELISA, antigen coated on the plate, purified Nb detected via its EPEA tag. Put shortly:
(§1)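 The RocCOR, Roc, COR-B and kinase-WD40 constructs were coated side by side on one ELISA plate. Binding of each purified nanobody to every coated construct was then detected.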
On the technique in general: ELISA stands for enzyme-linked immunosorbent assay.

Assay [3] addresses T3, LRRK2 Roc domain construct (human, UniProt Q5S007 1329-1520).
T3 construct: not shown: N-terminal His6-tag of pET-28a
T3 sequence: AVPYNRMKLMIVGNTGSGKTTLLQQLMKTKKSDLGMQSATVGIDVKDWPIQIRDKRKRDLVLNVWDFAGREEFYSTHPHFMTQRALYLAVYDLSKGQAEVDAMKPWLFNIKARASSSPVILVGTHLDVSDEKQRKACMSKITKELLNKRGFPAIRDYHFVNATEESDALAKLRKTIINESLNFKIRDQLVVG
Described as above. In short, it runs like this: as §1

Assay [4] concerns the target T4, LRRK2 COR-B construct (C-terminal part of the COR domain), His6-MBP tagged (human, UniProt Q5S007 1672-1840).
T4 construct: also called (MBP-)COR-B; not shown: N-terminal His6-MBP-tag of pDEST-566
Described as above. Put shortly: as §1

Assay [5] deals with T1, Full-length human Leucine-rich repeat …. Nature of the assay: kinase kinetics (PhosphoSens, varied ATP), global fit to mixed inhibition; ATP-bound LRRK2; enzyme kinetics, mixed inhibition fit; ATP-bound LRRK2. As to the method:
(§2) Full Michaelis-Menten curves (relative velocity versus [ATP]) in presence of different Nb concentrations were collected at 30° C. in a buffer consisting of 50 mM HEPES pH 7.5, 0.1% Brij-35, 50 mM NaCl, 10 mM MgCl₂ and […], using a fixed concentration of AQT0615 (10 μM) and varying concentrations of ATP. The LRRK2 concentration was chosen such that initial rates (linear fluorescence versus time curves) were obtained, and LRRK2, ATP and the Nbs were preincubated at 4° C. for 30 min prior to starting the reaction by adding the peptide substrate. The Michaelis-Menten curves for the different Nb concentrations were globally fit on a mixed-inhibition model using GraphPad Prism, according to the equation: […]

For assay [6] the target is unchanged. Nature of the assay: BLI; Nb on LRRK2 trapped on streptavidin sensor via biotinylated Nb40; steady-state fit; BLI; LRRK2 trapped on the sensor via biotinylated Nb40. On the procedure: To determine the binding affinity (dissociation constant KD) of the ten Nbs for LRRK2, two methods were used in parallel: microscale thermophoresis (MST) and bio-layer interferometry (BLI). For the MST experiment, we site-specifically labeled the ten Nbs with a m-TAM RA fluorophore at its C-terminus, using sortase-mediated coupling, and then titrated increasing amounts of full-length LRRK2 to these Nbs (FIGS. 13A-13E).
Biolayer interferometry (BLI) measurements were performed using an Octet Red96 (Forte Bio, Inc.) system in a buffer containing 50 mM HEPES pH 8.0, 150 mM NaCl, 10 mM MgCl₂, 5% glycerol, 0.1% BSA, 0.05% Tween, at 25° C. and with shaking speed 1000 rpm. […] The biotinylated Nbs were first loaded on pre-equilibrated SA biosensors at a concentration of 5 μg/mL. This Nb-loaded sensor was then used to trap FL-LRRK2 from a 50 nM LRRK2 solution. […] All experiments were performed in triplicate.

Assay [7] shares this target. Nature of the assay: kinase kinetics (PhosphoSens, varied ATP), global fit to mixed inhibition; affinity for apo-LRRK2; enzyme kinetics, mixed inhibition fit; apo (non-ATP-bound) LRRK2. As to the method: as §2

The record followed here is patent US20230087785A1, “Leucine-Rich Repeat Kinase 2 Allosteric Modulators” (VIB VZW, priority 2020, published 2023).

Broadly, the Ki is a dissociation constant, usually derived from enzyme kinetics or from competition with a known ligand. As a reminder, the Kd is the free concentration of one partner at which half of the binding sites on the other are occupied at equilibrium, for simple one-to-one binding.

B1: Nb23 (CA13612) (VHH)
VHH: QVQLVESGGGLVQAGGSLRLSCAASGRTFSRYTMGWFRQAPGKDREFVARITTSGAVTTYADSAKGRFTISRDNAKNTVYLQMNTLKPEDTAVYYCAAGQGQLSSQSRFVDYWGQGTQVTVSS
Take B1: in assay [1], the “IC50 of in vitro LRRK2 kinase activity (AQT0615 peptide, PhosphoSens, 1 mM ATP)” value is about 65 µM. Further, the binding result in assay [2], in assay [3] and in assay [4] was “no binding (tested: not given)” each time. The results for the inhibition constant (Ki) in assay [5] and in assay [7] were 66 µM and 9 µM, respectively. Binding in assay [6] was put at a Kd of 0.065 µM.
